From patent WO2009080764A2 (dated 2009)

What was measured:
[1] = biological target: T1, human beta2-microglobulin (human, UniProt P61769 21-119); experiment: ELISA on coated b2-microglobulin from human urine, pH 5.1
T1 construct: also called b2-microglobulin; soluble human b2-microglobulin

[2] = biological target: shFcRn (intact soluble human FcRn, heavy chain and beta2-microglobulin) (human) (UniProt P55899); experiment: ELISA pH 5.1, purified nanobody 0-50 nM on coated shFcRn, anti-myc detection
[3] = biological target: T2, shFcRn-GST (GST-fused soluble human FcRn, heterodimeric) (human, UniProt P55899 24-290; P61769 21-119); experiment: SPR Biacore 3000, immobilized shFcRn-GST, pH 7.4, equilibrium responses in a steady-state affinity model
T2 construct: Eukaryotically expressed; immobilized by amine coupling on CM5 chips or used in ELISA; also called GST-fused shFcRn; not shown: GST fusion partner

[4] = biological target: T2, shFcRn-GST (GST-fused soluble human …); experiment: SPR Biacore 3000, Nb 500-15 nM over immobilized shFcRn-GST, pH 6.0, 1:1 Langmuir model
[5] = biological target: T2, shFcRn-GST (GST-fused soluble human …); experiment: SPR Biacore 3000, immobilized shFcRn-GST, pH 6.0, equilibrium responses in a steady-state affinity model
[6] = biological target: T2, shFcRn-GST (GST-fused soluble human …); experiment: SPR Biacore 3000, Nb 500-15 nM over immobilized shFcRn-GST, pH 7.4, 1:1 Langmuir model
[7] = biological target: T3, human serum albumin (HSA) (human, UniProt P02768 25-609); experiment: SPR Biacore T100, periplasmic extract over immobilized human serum albumin, pH 7 and pH 5
T3 construct: also called monomeric HSA

T2 sequence (P55899 24-290, chain 1 of 2): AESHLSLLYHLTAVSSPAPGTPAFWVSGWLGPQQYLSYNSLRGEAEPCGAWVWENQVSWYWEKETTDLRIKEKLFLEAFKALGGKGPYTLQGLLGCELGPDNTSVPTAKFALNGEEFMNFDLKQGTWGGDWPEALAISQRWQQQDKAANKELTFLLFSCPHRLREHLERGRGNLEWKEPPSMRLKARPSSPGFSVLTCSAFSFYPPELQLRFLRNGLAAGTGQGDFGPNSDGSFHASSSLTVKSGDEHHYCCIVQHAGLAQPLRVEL
T2 sequence (P61769 21-119, chain 2 of 2): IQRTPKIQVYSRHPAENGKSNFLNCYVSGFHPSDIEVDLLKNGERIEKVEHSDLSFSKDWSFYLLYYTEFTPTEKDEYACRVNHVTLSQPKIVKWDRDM
T1 sequence (P61769 21-119 limits assumed): as the sequence (P61769 21-119, chain 2 of 2) above
shFcRn (intact soluble human FcRn, heavy chain and beta2-microglobulin) (human), sequence (P55899 other isoform, or with tags, fused parts or gaps, chain 1 of 2): as the sequence (P55899 24-290, chain 1 of 2) above, with C48S, C251S counted along it
shFcRn (intact soluble human FcRn, heavy chain and beta2-microglobulin) (human), sequence (P61769 21-119, chain 2 of 2, further chain): as the sequence (P61769 21-119, chain 2 of 2) above

B1: 218-H4_20GS_218-H4 (bivalent Nb 218-H4) (VHH)
chain: EVQLVESGGALVQAGGSLRLSCVASGRTFNSIGMGWFRQAPGKERDFIGGITWDGRDTYYTDSVKGRFTISRDNAKNTVYLQMNSLKPWDTAVYYCAANRDPWIATSYQDYAYWGQGTQVTVSSGGGGSGGGGSGGGGSGGGGSEVQLVESGGALVQAGGSLRLSCVASGRTFNSIGMGWFRQAPGKERDFIGGITWDGRDTYYTDSVKGRFTISRDNAKNTVYLQMNSLKPWDTAVYYCAANRDPWIATSYQDYAYWGQGTQVTVSS
- binding result [1]: no binding (tested: 0-50 nM)
- fold improvement in binding against the monovalent nanobody [2]: 10 fold

B2: Nb 218-H4 (VHH)
VHH: EVQLVESGGALVQAGGSLRLSCVASGRTFNSIGMGWFRQAPGKERDFIGGITWDGRDTYYTDSVKGRFTISRDNAKNTVYLQMNSLKPWDTAVYYCAANRDPWIATSYQDYAYWGQGTQVTVSS
notes: Anti-FcRn Nanobody, family V; detected through a myc tag; also called monovalent nanobody
- Kd [3]: 55.6 nM
- Kd [4]: ~21.2 nM
- Kd [5]: 22 nM
- binding result [1]: no binding (tested: 0-50 nM)
- Kd [6]: ~52.5 nM

B3: 4A9 (VHH)
VHH: EVQLVESGGGLVQAGGSLRLSCEASGFTLDYSGVGWFRQAPGKERELVSCISRGGDRAGYANSVKGRFTMSRDNAKNILYLQMNSLKPEDTAVYYCAATHSGSGCYDGAIDYWGKGTLVTVSS
- fold difference in off rate, pH 5 against pH 7 [7]: 0.54 fold
